In the nanobody polyreactivity screen of Harvey et al. (2022):

Assay: yeast display, Sf9 membrane polyspecificity reagent, FACS + sequencing; frameworks hold sequencing errors
Summary of the method: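 A nanobody's polyreactivity label depends on the gate it was sorted from. Yeast display cells were stained with 10% biotinylated, detergent-solubilized Sf9 membrane reagent for 1 hour at 4 °C, enriched on streptavidin microbeads and sorted by FACS. The low and high (top ~1%) gates were set on anti-HA fluorescence for expression and streptavidin fluorescence for reagent binding.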

Sequence | polyreactivity (PSR sort gate)
QVQLVESGGGLVQAGGSLRLSCAASGFTFQYKAMGVYRQAPGQERELVAAISRGGGRTYYADSVKGRFTISRDNAKNTVYLQMNSLKPEDTAVYYCNVLNYSSRHYLFSYDYWGQGTQVTVSS | high polyreactivity
QVQLVESGGGLVQAGGTLRLSCAASGLIFVRYAMGWYRQAPGKERELVATITDGGSKYYADSVKGRFTISRDNAKNTVYLQMNSLKPEDTAVYYCNKDRVSVRYEYWGQGTQVTVSS | low polyreactivity
QVQLVESGGGLVQAGGSLRLSCAASGFIFRINAMGWYRQAPGKERELVAAITSSGGSTYYADSVKGRFTISRDNAKNTVYLQMNSLKPEDTAVYYCAASRPRPPSSRRMDYWGQGTQVTVSS | high polyreactivity
QVQLVESGGGLVQAGGSLRLSCAASGRNFVAYTMGWYRQAPGKERELVAAISTNGGRTYYADSVKGRFTISRDNAKITVYLQMNSLKPEDTAVYYCAAYRGPRADYYWGQGTQVTVSS | high polyreactivity
QVQLVESGGGLVQAGGSLRLSCAASGSTFGIYVMGWYRQAPGKERELVATISSSGGRTYYADSVKGRFTISRDNAKNTVYLQMNSLKPEDTAVYYCAADGYIDISPGYYYTYDYWGQGTQVTVSS | low polyreactivity
QVQLVESAGGLVQAGGSLRLSCAASGSTFVTNVMGWYRQAPGKERELVAAISYSGGNTYFEDSVKGRFTISRDYAKNTVYLQMNSLKPEDTAVYSCAASYKPFKKMGYWGQGTQVTVSS | high polyreactivity
QVQLVESGGGLVQAGGSLRISCAASGSNFPYYAMGWYRQAPWQERELVAAISRGGGTTYYADSVKGRFTISRDNAKNTVYLQMISLKPEDTAVYYCAARQWRISTPYDYWGQGTQVTVSS | high polyreactivity
QVQLVESGGGLVQAGGSLRLSCAASGFTFPRYAMGWYRQAPGKERELVAAITSGDRTYYADSVKGRFTISRDNAKNTVYLQMNSLKPEDTAVYYCARVPDTEGEYWGQGTQVTVSS | high polyreactivity
QVQLVESGGGLVQAGGSLRLSCAASGSIFIPNAMGWYRQAPGKERELVAAIRSGGSTYYADSVKGRFTISRDNAKNTVYLQLLSLKPEDTAVYYCAADTYTYYYYLARYYYWGQGTQVTVSS | low polyreactivity
QVQLGESGGGLVQAGGSLRLTCAASGSIFRYYAMGWYRQAPGKERELVAAIRWSGGRTYYADSVKGRFTISRDNAKNTVYLQMNSLKPEDTAVYDCAADPPHYKPNVRYYYWGQGTQVTVSS | high polyreactivity
QVQLVESGGGLVQAGGSLRLSCAASGSTFYYYAMGWYRQAPGKERELVAAISATGGSTYYADSVKGRFTISRDNAKNTVYLQMNSLKPEDTAVYYCAAYASRRLRTIRIFGNDYWGQGTQVTVSS | high polyreactivity
QVHIVETGGGLFQAGGSLRLSSASSGRIFPVYAMGWYRQAPGKERELVAAISRRGGSSYYEDSVKGRFTISRDNAKNTVYLHMNCLKTEDTEVNYFAATAYYYWWWYGGDMDYWGQGTQVSVSS | high polyreactivity
QVQLVESGGGLVQAGGSLRLSCAASGGTFGVNTMGWYSHAPGKERELVAAISNRGVSTYYADSVKGRFTISRDNAKNTVYLQMNSQKPEDTAVYYCASTNSYVYSITLDRYDYWGQGTQVTVSS | low polyreactivity
QVQLVESGGGLVQAGGSLRLSCAASGSIVYYNAMGWYRQAPGKERELVASISNGGSTDYADSVKGRFTISRDNAKNTVYLQMNSLKPEDTAVYSCNAKQSYRSEYDYWGQGTQVTVSS | low polyreactivity
QVQLVESGGGLVQAGGSLRLSCAASGSNLLRYAMGWYRQAPGKERELVAAIRTIGASTNYADSVKGRYTISRDNAKNTVYLLMNSMKPEDTAVYYCNSYLAEVLPVGKGRLYDYWGQGTQVTVSS | low polyreactivity
QVQLVESGGGLVQAGGSLRLSCAASGSTLFWNAMGWYRKAPGKERELVAVISFSGVSTYYADSVKGRFTISRDNAKNTVYLQLNSLKPEDTAVYYCAAGRCLYYYYGYVDKYGYWGQGTQVTVSS | low polyreactivity

Sequence | polyreactivity (PSR sort gate)
QVQLVESGGGLVQAGGSLRLSCAASGSIFYTYAMGWYRQAPGKERELVAVISYGGGRTYYADSVKGRFTISRDNAKNTVYLQMNSLKPEDTAVYYCAASYSFYAFSVPYYYWGQGSQVTVSS | high polyreactivity
QVQLVESGGGLVQAGGSLRLSCAASGSIFEQYTMGWYRQAPGKERELVAAISRRSGRTYYADSVKGRFTISRDNAKNTVYLQMNRLKPEDTAVYYCNTVYYGNFYSTRYDYWGQGTQVTVSS | high polyreactivity
QVQLVESGGGLVQAGGSLRLSCAASGSIFIGYGMGWYRQAPGKERELVAAITSGSITNYADSVKGRFTISRDNAKNTVYLQMNSLKPEDTAVYNCNADVNFIDDDYWGQGTQVTVSA | low polyreactivity
QDQLVESGGGLVQAGGSLRLSCAASGFTFYTNVMGWYRQAPGKERELVAAINSGGSTNYADSVKGRFTISRDNAKNTVYLQMNSMKPEDTAVYYCNKSGTEIGYDYWGQGTQVTVLS | low polyreactivity
QVQLVESGGGLVQAGGSLRLSCAASGRIFPHNAMGWYRQAPGKERELVAAIRFSGGNTYYADSVKGRFTISRDNAKNTVYLQLNSLKPEDTAVYYCFVYGYVPYNYWGQGTQVTVSS | low polyreactivity
QVQLVESGGGLVQAGGSLRLSCAASGRTFIWYAMGWYRQAPGKERELVAAISYSGASTYYADSVKGRFTNSRDNAKNTVYLQMNSLKPEDTAVYYCYPLGTYSYDYWGQGTQVTVSS | high polyreactivity
QVHLVESRGGLDQAGGSLRLSCAASGRTVYQYAMGRNRQAPGKERELVAAITRSGSRTYYADTVKGRFTISRDNAKNTVYLQMNSLKPEDTAVYYCAADGHGGFPIDEYYYWGQGTQVTVSS | high polyreactivity
QVHLVESGGGLVQAGGSLRLSSAASGSIFGANAMGWYRQAPGKERELVAAITSGSGTNYADSVKGRFTISRDNSKNTVYLQMNSLKPEDTAVYSCAARHPYPIYDYWGQGTQVTVSS | low polyreactivity
QVQLHESVGGLVQAGVSLRLSCEASGTNFTARFIGWYRQAPGKERELVATITDGCYTNHADSVNGRFTISRDNAKNTVYLTMNSLKPEVAAVYYCAAGDVDNDTLMYWGQGSQVTVSS | low polyreactivity
QGQLEESCGGLVQAGARLRISCEASGRTFRFYTMGGYRPAPGKEMELVAAISSNTGTTYADSVKGRFTISRDNAKNTVYLQMNSLKQEDTAVFFCAARVRRQYYNRPYYYWGQGTQVTVSS | high polyreactivity
QVHLVESGGGLVQAGGSLRLSCAASGFTFRYYTMGWYRQAPGKERELVARITWSGGITYYADSVKGRFTISRDNAKNTVYLQMNSLKPEDTAVYYCNAERRWAAYDYWGQGTQVTVSS | high polyreactivity
QVQLVDSGGGLVQAGGSLRLSCAASGRIFNWYAMGWYRQAPGKERELVARITWCDGGTYYADSVKGRFTISRDNAKNTVSLQMNSLKPDDTAVYYCAKQWKSYYALDYWGQGTQVTVSS | high polyreactivity
QVQLVESVGCLVQAGGSLRLSCAATVSIFDRYAMGWNRQPPGKESELVAAISKSGGRTYYADSVKGRFTISRDNAKNTVYLQMNSLKPEDSAVYDCAADPLLGYLSHYYWGQGTQVTVSS | high polyreactivity
QVQLVESGGGLVQAGGSLRLSCAASGRIFFLYAMGWYRQAPGKERELVAAITKSGGSTYADSVKGRFTISLDNAKNTVYLQMNSLKPVDTAVYYCATENTECRDSGYIVKYGSDYWGQGTQVTVSS | low polyreactivity
QVQLVESGGGLFQAGGSLRLSCAASGGIFSLYAMGWYRQAPGTERELVAVISSTCSTHYADSVKGRFTISRDNAKKTVSLLMNSLKPEDTAVYYCNADARTSRKKFGYWGQGTQVTVSS | low polyreactivity
QVQVVESVGGLVQAGGILRLSCAASGRTFRGNAMGWYRQAPGKERELVAAISSSGARTYYADSVKGRFTISRDNAKNTVYLQMNSLKPEDTAVYYCAAVYTDGALQGYDYWGQGTQVTVSS | low polyreactivity
